Patent publication US20210123065

Test system: Che9c RecT annealase (Mycobacteriophage Che9c)
Assay: cell_activity
Conditions: oligo recombineering, about 1 ug oligo, M. smegmatis

Substance: 180-mer hyg oligo carrying 60 base insertion
- activity (recombinants per survivor): 2e-06
